Experimental data: US5620849

Target: E1/E2 complex (Bovine papillomavirus type 1) (UniProt P03116+P03122)
Assay: footprint
Conditions: E1 plus 100 ng E2: equivalent protection of E1 site at 10-fold lower E1 than without E2

UniProt P03116, sequence (P03116 whole entry, chain 1 of 2): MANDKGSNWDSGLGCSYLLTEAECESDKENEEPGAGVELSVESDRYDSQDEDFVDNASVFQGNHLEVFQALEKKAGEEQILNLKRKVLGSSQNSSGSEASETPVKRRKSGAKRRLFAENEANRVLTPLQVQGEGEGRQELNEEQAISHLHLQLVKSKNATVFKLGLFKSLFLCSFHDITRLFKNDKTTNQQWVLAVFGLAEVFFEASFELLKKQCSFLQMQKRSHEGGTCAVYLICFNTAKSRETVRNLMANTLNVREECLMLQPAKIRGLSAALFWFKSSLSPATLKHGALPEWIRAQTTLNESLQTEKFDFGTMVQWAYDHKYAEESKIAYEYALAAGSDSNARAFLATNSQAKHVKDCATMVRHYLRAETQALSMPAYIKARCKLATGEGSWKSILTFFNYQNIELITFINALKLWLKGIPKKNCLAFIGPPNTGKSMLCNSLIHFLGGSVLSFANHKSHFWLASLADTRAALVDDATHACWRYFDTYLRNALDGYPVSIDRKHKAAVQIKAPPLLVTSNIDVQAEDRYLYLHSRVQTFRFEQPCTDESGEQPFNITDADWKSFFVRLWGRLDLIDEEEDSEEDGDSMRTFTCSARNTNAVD
UniProt P03116, sequence (P03122 whole entry, chain 2 of 2): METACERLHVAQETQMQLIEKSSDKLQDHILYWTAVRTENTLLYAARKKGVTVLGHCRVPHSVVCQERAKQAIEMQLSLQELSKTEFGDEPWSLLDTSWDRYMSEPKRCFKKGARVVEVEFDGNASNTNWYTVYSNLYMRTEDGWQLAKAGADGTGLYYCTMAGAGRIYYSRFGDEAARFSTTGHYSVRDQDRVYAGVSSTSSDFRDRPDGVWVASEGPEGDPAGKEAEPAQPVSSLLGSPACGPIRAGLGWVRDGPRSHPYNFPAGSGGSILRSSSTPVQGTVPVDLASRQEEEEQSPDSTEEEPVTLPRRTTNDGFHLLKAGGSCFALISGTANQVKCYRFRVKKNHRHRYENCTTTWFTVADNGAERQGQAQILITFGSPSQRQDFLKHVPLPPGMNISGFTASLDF

ACCGAAACCGGTAAGTAAAGACTATGTATTTTTTCCCAGTGAATANBBRBBRBBNNCNNBNNBCACACCATCACCGTT (double strand) [pKSO BPV origin fragment (7805-100)]
binding signal: 10 fold
